This series can be described thus: total protein half-life in vivo (active degradation + dilution); higher = more stable protein.
[1] abbreviates: wild type E. coli NCM3722, growth: P-lim chemostat, doubling time 6 h.
The mark [2] stands for this setting: wild type E. coli NCM3722, growth: P-lim chemostat, doubling time 12 h.
The mark [3] stands for this setting: wild type E. coli NCM3722, growth: C-lim chemostat, doubling time 3 h.
[4] abbreviates: wild type E. coli NCM3722, growth: C-lim chemostat, doubling time 6 h.
Setting [5] is: wild type E. coli NCM3722, growth: C-lim chemostat, doubling time 12 h.
[6] abbreviates: E. coli NCM3722 delta-clpP delta-lon delta-hslV, growth: N-lim chemostat, doubling time 6 h.
Where [7] appears, read: E. coli NCM3722 delta-clpP, growth: N-lim chemostat, doubling time 6 h.
The mark [8] stands for this setting: E. coli NCM3722 delta-hslV, growth: N-lim chemostat, doubling time 6 h.
[9] abbreviates: E. coli NCM3722 delta-lon, growth: N-lim chemostat, doubling time 6 h.
The mark [10] stands for this setting: E. coli NCM3722 delta-smpB, growth: N-lim chemostat, doubling time 6 h.
[11] abbreviates: wild type E. coli NCM3722, growth: N-lim chemostat, doubling time 6 h.
The mark [12] stands for this setting: wild type E. coli NCM3722, growth: N-lim chemostat, doubling time 12 h.

± gives the standard deviation of the averaged measurements. Some results are limits rather than exact numbers.

“MHLITQKALKDAAEKYPQHKTELVALGNTIAKGYFKKPESLKAVFPSLDNFKYLDKHYVFNVGGNELRVVAMVFFESQKCYIREVMTHKEYDFFTAVHRTKGKK”: the “total protein half-life in vivo” value came out at 6.72 h under setting [1] and 10.1 ± 0.64 h under setting [2].
Turning to “MNEHHQPFEEIKLINANGAEQWSARQLGKLLGYSEYRHFIPVLTRAKEACENSGHTIDDHFEEILDMVKIGSNAKRALKDIVLSRYACYLVVQNGDPAKPVIAAGQTYFAIQTRRQELADDEAFKQLREDEKRLFLRNELKEHNKQLVEAAQQAGVATATDFAIFQNHGYQGLYGGLDQKAIHQRKGLKKNQKILDHMGSTELAANLFRATQTEEKLKRDGVNSKQQANTTHFDVGRKVRQTIQELGGTMPEELPTPQVSIKQLENSVKITEKK”, the “total protein half-life in vivo” value runs as follows: under setting [3], 2.12 h; under setting [4], 3.02 h; under setting [5], 5.87 h.
Take “MALLQISEPGLSAAPHQRRLAAGIDLGTTNSLVATVRSGQAETLADHEGRHLLPSVVHYQQQGHSVGYDARTNAALDTANTISSVKRLMGRSLADIQQRYPHLPYQFQASENGLPMIETAAGLLNPVRVSADILKALAARATEALAGELDGVVITVPAYFDDAQRQGTKDAARLAGLHVLRLLNEPTAAAIAYGLDSGQEGVIAVYDLGGGTFDISILRLSRGVFEVLATGGDSALGGDDFDHLLADYIREQAGIPDRSDNRVQRELLDAAIAAKIALSDADSVTVNVAGWQGEISREQFNELIAPLVKRTLLACRRALKDAGVEADEVLEVVMVGGSTRVPLVRERVGEFFGRPPLTSIDPDKVVAIGAAIQADILVGNKPDSEMLLLDVIPLSLGLETMGGLVEKVIPRNTTIPVARAQDFTTFKDGQTAMSIHVMQGERELVQDCRSLARFALRGIPALPAGGAHIRVTFQVDADGLLSVTAMEKSTGVEASIQVKPSYGLTDSEIASMIKDSMSYAEQDVKARMLAEQKVEAARVLESLHGALAADAALLSAAERQVIDDAAAHLSEVAQGDDVDAIEQAIKNVDKQTQDFAARRMDQSVRRALKGHSVDEV [P0A6Z1]”: the “total protein half-life in vivo” value was 5.04 ± 0.78 h under setting [6]; 4.05 ± 0.14 h under setting [7]; 2.65 ± 0.14 h under setting [8]; 3.22 ± 0.24 h under setting [9]; 2.53 ± 0.028 h under setting [10]; 2.7 ± 0.2 h under setting [3]. Also, the “total protein half-life in vivo” value is 4.48 ± 0.47 h under setting [4]; 7.07 ± 1.1 h under setting [5]; 2.857 ± 0.016 h under setting [11]; 3.54 ± 0.12 h under setting [12]; 4.05 ± 0.31 h under setting [1]; 6.96 ± 0.068 h under setting [2].
With “MNIENLKTKAEADISEYITKKIIELKKKTGKEVTSIQFTAREKMTGLESYDVKINLI”, the “total protein half-life in vivo” value by setting is: under setting [6], 6.69 ± 0.78 h; under setting [7], 6.7 ± 1.3 h; under setting [8], 5.74 ± 0.34 h; under setting [9], 6.46 ± 0.88 h; under setting [10], 5.57 ± 0.3 h; under setting [3], 3.24 ± 0.47 h. Moreover, the “total protein half-life in vivo” value worked out at 5.85 ± 0.45 h under setting [4]; 10.6 ± 1.6 h under setting [5]; 5.71 ± 0.32 h under setting [11]; 13.6 ± 3.4 h under setting [12]; 5.4 ± 0.96 h under setting [1].
Consider “MPHNPIRVVVGPANYFSHPGSFNHLHDFFTDEQLSRAVWIYGKRAIAAAQTKLPPAFGLPGAKHILFRGHCSESDVQQLAAESGDDRSVVIGVGGGALLDTAKALARRLGLPFVAVPTIAATCAAWTPLSVWYNDAGQALHYEIFDDANFMVLVEPEIILNAPQQYLLAGIGDTLAKWYEAVVLAPQPETLPLTVRLGINNAQAIRDVLLNSSEQALSDQQNQQLTQSFCDVVDAIIAGGGMVGGLGDRFTRVAAAHAVHNGLTVLPQTEKFLHGTKVAYGILVQSALLGQDDVLAQLTGAYQRFHLPTTLAELEVDINNQAEIDKVIAHTLRPVESIHYLPVTLTPDTLRAAFKKVESFKA”, for which the “total protein half-life in vivo” value is 4.77 ± 0.33 h under setting [6]; 4.6 ± 0.098 h under setting [7]; 4.1 ± 0.11 h under setting [8]; 4.91 ± 0.17 h under setting [9]; 4.21 ± 0.15 h under setting [10]; 2.67 ± 0.1 h under setting [3]. Moreover, the “total protein half-life in vivo” value by setting is: under setting [4], 5.28 ± 0.084 h; under setting [5], 9.15 ± 1.6 h; under setting [11], 4.38 h; under setting [12], 7.78 h; under setting [1], 5.64 ± 0.28 h; under setting [2], 11.2 ± 0.17 h.
On to “MISDIRKDAEVRMDKCVEAFKTQISKIRTGRASPSLLDGIVVEYYGTPTPLRQLASVTVEDSRTLKINVFDRSMSPAVEKAIMASDLGLNPNSAGSDIRVPLPPLTEERRKDLTKIVRGEAEQARVAVRNVRRDANDKVKALLKDKEISEDDDRRSQDDVQKLTDAAIKKIEAALADKEAELMQF [P0A805]”, for which the “total protein half-life in vivo” value by setting is: under setting [6], 4.75 ± 0.095 h; under setting [7], 4.0455 ± 0.00085 h; under setting [8], 4.18 ± 0.071 h; under setting [9], 5.16 ± 0.078 h; under setting [10], 3.87 ± 0.05 h; under setting [3], 2.851 ± 0.0093 h. The “total protein half-life in vivo” value by setting is: under setting [4], 4.84 ± 0.37 h; under setting [5], 8.3 ± 0.69 h; under setting [11], 3.38 ± 0.24 h; under setting [12], 5.74 ± 0.96 h; under setting [1], 5.04 ± 0.18 h; under setting [2], 9.21 ± 0.22 h.
As for “MLSNDILRSVRYILKANNNDLVRILALGNVEATAEQIAVWLRKEDEEGFQRCPDIVLSSFLNGLIYEKRGKDESAPALEPERRINNNIVLKKLRIAFSLKTDDILAILTEQQFRVSMPEITAMMRAPDHKNFRECGDQFLRYFLRGLAARQHVKKG”, the “total protein half-life in vivo” value is 5.25 ± 0.12 h under setting [6]; 6.64 ± 0.089 h under setting [9]; 5.21 ± 0.48 h under setting [10]; 3.21 ± 0.69 h under setting [3]; 6.3 ± 0.61 h under setting [4]; 11.7 ± 1 h under setting [5]. For the same sequence, the “total protein half-life in vivo” value runs as follows: under setting [11], 5.08 ± 0.49 h; under setting [12], 8.7 ± 0.92 h; under setting [1], 4.99 ± 0.15 h.
On to “MMGKLIWLMGPSGSGKDSLLAELRLREQTQLLVAHRYITRDASAGSENHIALSEQEFFTRAGQNLLALSWHANGLYYGVGVEIDLWLHAGFDVLVNGSRAHLPQARARYQSALLPVCLQVSPEILRQRLENRGRENASEINARLARAARYTPQDCHTLNNDGSLRQSVDTLLTLIHQKEKHHACL”, for which the “total protein half-life in vivo” value under setting [6] was 5.33 h, the “total protein half-life in vivo” value under setting [1] was determined as 0.578 h and the “total protein half-life in vivo” value under setting [2] turned out to be 1.28 h.
In the case of “MKKTLLAAGAVLALSSSFTVNAAENDKPQYLSDWWHQSVNVVGSYHTRFGPQIRNDTYLEYEAFAKKDWFDFYGYADAPVFFGGNSDAKGIWNHGSPLFMEIEPRFSIDKLTNTDLSFGPFKEWYFANNYIYDMGRNKDGRQSTWYMGLGTDIDTGLPMSLSMNVYAKYQWQNYGAANENEWDGYRFKIKYFVPITDLWGGQLSYIGFTNFDWGSDLGDDSGNAINGIKTRTNNSIASSHILALNYDHWHYSVVARYWHDGGQWNDDAELNFGNGNFNVRSTGWGGYLVVGYNF [P0A927]”, the “total protein half-life in vivo” value reads like this: under setting [7], > 8 h; under setting [8], 6.33 ± 0.09 h; under setting [9], > 8 h; under setting [5], 14.1 ± 1 h; under setting [11], 6.53 ± 0.7 h; under setting [1], 6.08 ± 0.99 h.
Take “MPLLDSFTVDHTRMEAPAVRVAKTMNTPHGDAITVFDLRFCVPNKEVMPERGIHTLEHLFAGFMRNHLNGNGVEIIDISPMGCRTGFYMSLIGTPDEQRVADAWKAAMEDVLKVQDQNQIPELNVYQCGTYQMHSLQEAQDIARSILERDVRINSNEELALPKEKLQELHI”: the “total protein half-life in vivo” value is 5.42 ± 0.74 h under setting [6]; 4.79 ± 0.64 h under setting [7]; 4.37 ± 0.6 h under setting [8]; 4.38 ± 0.28 h under setting [9]; 3.97 ± 0.12 h under setting [10]; 2.71 ± 0.32 h under setting [3]. The “total protein half-life in vivo” value is, setting by setting: under setting [4], 4.05 ± 0.31 h; under setting [5], 7.07 ± 0.68 h; under setting [11], 3.61 ± 0.1 h; under setting [12], 5.61 ± 0.47 h; under setting [1], 4.72 ± 0.19 h; under setting [2], 9.47 ± 0.63 h.

The values are drawn from the supplement of paper PMC11246515.
